Results: PMC11098746 (2024)

B1: 2 (protein)
chain: DFFLRYRTGFIRSRLETYIGNSDVRYNKAFINNRLLNEHAHCDAWSEWSACSKTCDYGIKIRVKISTDQTKSKACSNIAESTICHEHICPRTFEEAEETYLHNKEKEKKKKFRTT
modifications: bait human Fc-tagged dimer
B2: 72 (protein)
chain: SNHIKSVNRCFIPFISEYIYKQKNRKNNIAYDSSNSHYNDKIIPCGNYNKQLKYKINFCRNLYFNNKNEYNRICSRNKLNFHNIQTDNTIYKPKKKYYEVGKVREKIKMYTLFKDDKINTLKCNEEESVTSETINKHDSSVKVKGRRKKNIASNENIMNPNNKAVSSINTNLADSSNNKNDNSLNSKKNDNTLNSKKNDNTLNSKKNDNTLNSKNNNNALNSKNNNNALNSKKSNNAYNDKHIDHIIPEGKNKINNNIDVKHNINNKLNEINEEPYEDTHNKEENSANKNDNDEKRKEENNNIARRYIKNDQMSYNNINTNSNEYDKNAATLDETYIGKTFEGYVYSVNKNAACIKLKNINKYGLLFKNKANLGDDIEDMNDFFEKDQPVHVKILGINTKKNIFYLGNIIKYNENIKLSKGEYSKGLITKVCDSYCFIKVLKNGATGYLHKSKLFCMNDKEKKNNDNQNYDNPNNDNPNYDNQNYDNQNYNNPNYDHPNYDNQNYDNQNYNNPNNDYSTSQLYNSDNLQMDFIYKLQFTKIFNIWDIIDVEILGTPQNDYKSNYILTIPRGSKTFKKILNYLNVLKENEDINNIQYKGDYIYSIDNNKNDNIIDSDINNHHINNKKKKKNLYDIQNNMNHAPFNKFHTEDEYLFNDHVQENVHTFYEKNKKYKITYDKENNHKMNKAYYLKKNKELPFNNKFKKIIKNIYDLPNTISLSMLSKTIKIPLASIKKYFIIHENKEYNSAYKINSEQIKRICQHFKIDCNVEQRDDNVVTKVNGATKDCQEKVFKNVAQDRLKEGEQERVIKVEAKIKNDEMVMQEQKDTKEEKHMDVQFIEEKDINVQHINVQDMDVQDMDVQDINVQDMDVQNINVQDINIQDMDVQNINNAITLNKATSCQTDESRDAPGGDQNEALDEKDSMEKSKEKKKKKGKSRKKNKDTNLALKSDSIQKSKTTLDDKKRNVVVTFIGHINHGKTSLFDYICKTNEQKKEYGLITQNIRAFKATVRNNFAFTLVDTPGHEAFMPMRSRGVKISDLSILVISGDEGIQEQTVECIKLIKEFNIKIIIAITKVDIPNVDVDRIINDLLYHDITTELNGGEIQVVECSIYKEESIDKLLDAIYLESEFLNLQTNPDKKHEQAQGVVLDSYIDKNGIVSINLLQNGVLNINDHFYTGSSYGKVKILKDHLNKNIKSAYPSDPIKIIGYNKNSVPVAGDKFYVVENEALAKEIAEHNKNKMLTMEINNFAYDQTNMNRYKDFIISRENKIGGSSGILGENNLKNDIDGNMARDDNMARDDNMASDDNMARDGNRANNDNIASDDNMANDYDKIKETKMYTNNKAFQKDDFLKIHLNNANENVINMDPSTHIGKNEIKTIYSNYIIKCDKQGSIEVLKNCMLKLQKEDSICKIKNKIIYADIGNVASSDIKYATSFNAAIIAFGVKLSNDIKGSKNSKGSKNHNNYPIIYSNVLYELIENVEKEMEKKLSKKPMGELKGTAQILKVFNIAKLGKVAGCIVKKGTISINSNIRILRNDKVIYMGKIISIKIVKEEKTQVTEADECGIGFDNFLDFEPNDIIEAYEN
modifications: bait human Fc-tagged dimer
B3: 45 (protein)
chain: GEEKLTKFDPVMIKEGELFGEVSYDCEYSGFLEIENDDILYYCFFVGEDDHNGLLLRKFHMDDMVWGIPMEVLITRKKINLYILTVDYILSKLILIYSFDEKIRITVFNNYMEESVMSEKISINYEILYKANMISYITYFYKNKKSLCVCGMNRNENILCTFSFDYGLTMKDDHTIEFFLKKKIPLGHYKMQVTFKETEVYFNLYNDLNEANFYELKCVKKQDEYICDIMNKIRETQEYNYKRYTYPSSEHNKYYNDHHNKQPQGKQGQQGGAPLPNLGEEENNFIYKHIVRNKYFQMIVFQKDQKCYLAWSFNSLNINDEITKEISSVPCSNVASYYRQERLIVTLKKNQLGSRNHFFLIYEKLTEKGVGCEFGVGGSLYVTKTFMNNACDMDINNMNVATTNYDEINFALIIPLSFQLNYATCFIWEENVDNNEERSSLYYLEEYTNEKEDIKVYTFYFYKYILIYKNFKKSTCTFESKNNEKLYISFRGDTYYKEYNCNILLDSCDFFLHTQSKINIAYDDDVWQVSEELYDGFVMYNGAYVSLYDVLSRSNAHGLIYIDGKENNAAINLNNIKNNNNNNNNNNNNNNAANNNNIANNANSNNAFGEHEKVITIIIPYGIPSTRTIKIEFLNKQNNEEKRWAYLRLQKNEYIMKKVIGINSADIFDLSYKYYKYNQEKIKFILNDFSETTYLGFICQTKEEIKKSLCTISLVDHSHKNMAINNLFKTNNHILPFLYDQSPPRKIQPYNQIISEFRFVLFKNFHLFLQENKINYILLKCMCSSSSSYINTQKNIELSYLITNEQVSHDFIHTPGILIRPRTNIAHNDYQKNNKGNHKGNNKANNKANDKDSNNNANNNANKNGNNHNDNNNNNQNKDIDINSNYAIHNNNEKVKRTKKKINDAPYDKQDEELPSYDFNDLLHEKKNGASVFDFNFVLFLFICITFF
modifications: bait human Fc-tagged dimer
B4: 74 (protein)
chain: YNLNNDLSKNNNFALNTYVRKDDVEDDSKNEIVDNIQKMVDDFSDDIGFVKTSMREVLLDTEASLEEVSDHVVQNIAKYSLTIEEKLNLFDGLLEEFIENNKGLISNLAKRQQKLKGDKIKKVCDLILKKLKKLENVNKLIKYKIILKYGNKDNKKEMIQTLKNEEGLSDDFKNNLANYETEQNNDDIKEIELVNFISTNYDKFVVNLEDLNKELLKDLNMALS
modifications: bait human Fc-tagged dimer
B5: 50 (protein)
chain: ANAFYVDNGQEMLIKEKEHYSSDSEHHKEESASIGNLNVFFPAENYHFSTYMGFDRRSFLPSNEIELEKMIGANFANEVKNYCSRQNVAQKIGDYLNIAFEYSRALEELRSEMILDFNKRKHLTNNADDTILHMIENAEKRKNDPNYKEAYENKDYANNANIFMNEYSNPLSTKYNKILKEYLCHLFVNNPGTKPLERLYYNSLALGELVEPIRNKFKSLASSTIDFNYEIHMASASNIYLLAHFLVLSLAYLSYNEYFTTGTKSFYSLPTILTANSDNSFFMLNEMCNIHYNPNKNFKKDITFIPIESRPKRTTTFYGERRLTCDLLELVLNAIMLININEINNVFSNNNVDGYENSLSFSHNAIRIFSKVCPKINNDNVLKCEFEESSLYNPKIIKNDASEKSSQKNLKKAFDLLRTYAEIEGHSAEGSTSPYYVSLILDDMKYNDFYKYTLWYEPRELIYGDIRGMQMKKKKKTKYIYNDFMKKSTQLKKKLIKNDLKYNLKSKGLVFLYAMIDKYGSILNKAQKAKVQFLNSASSIRYYLYLNKVIFKSAKTYLDIMKRVLEELQTSTNTPLKFLVRGNYIENINNIARNDNMFYANLFVLTALSRRDPVKDYYNDKRKMLSATLAEKFANSASMLIPHKLRKLVVSMKKGLLKKKLLTSLAKVKLLQHIPAHMLENIASSIRFTTHTIATMQIIQNAKYMSKHNFAQYDSKGMLARQIFTKGGFAEYADNLMAKWFSKGFEEYKREQIENFKMENSIDSELKDSEREDENDASEESAKKKLQDLQLEEREKMKKENSLLFNQADKWDQFINKELVRALGLWLEFNDNPANAASFVYKVVEDSKHLLENNIDNNIIFSRTVKPTKQTAFRRFFNKILSLGNMLLRKPSFRVEHALWFGATIDIKKAFILLEKVSELHKMLNNQDESWLINEAFIEIVDHVVDLSTYKHVREPFGVARNPGMMAINPKYAELSHENRLRELQNSMCADHCSSVWKVISSFALHHLKNPDSLHTYESKFSKNSFGNKIDDKDFVHNFKMILGGDAVLHYFDNLLPKTMKKDLKAMKYGVSLTSAYSLKLTKIIFSQMQLPYLSQMFYMQAPYFGHFIGKWQKKRQQSRLKEIMSFMTLGSLSAYTLFSAMDITQQAKDIGAGPVASCFTTRMSPPQQICLNSVVNAALSTSTQSAMKCVFSV
modifications: bait human Fc-tagged dimer
B6: 33 (protein)
chain: SSNDKNKINKNNMPLQRGASNLKDINIHNVEKKSNMESVNNNINNAACSKNLNANKVPNVAHTGVNKKGETKNEEVEKEENENEEIEKEEIENEENQQNEEDENEENQQNEEDENEENQQMNVNVDVSAEKKNKELPEEKKELQKNSEKNINKEVIKDSNKDNTFNFHKNINTAFNKNKNIYNNNNNNNNNNKAFIEKKEEAIDMKKTHCSNNNKMCKYNNMNNHMSTNKNNNQIFEESKQNVNKPIYNLKSLGNNAFKNDEKYNENDYKNNHDDDKKKYTDDSNEENIYEERNQKILLIHLLKNIKELLNRQRQNFNNFLSFLSENYQSYEKFYKSQKYQNGKNYIDKLDQQGELKNVAVVTHSFLDMSKAANGKKDKNGVFVKLMNDQNDDGDDTKDGDDTKDEDDHKNEDDHKNEDDHKNEDDHKNEDDHKNGDDNKNGDDHKNGDDNKNGDDDNGKKSHDISDIKNIIDTILQSDDITDEQKKYLEIIKKILDLEEDVLNKEKEQLQLNKNIIEVLMGKSDELRNIAVNLKNGNGDNEASQRVDLAQNIVSNLLNFAVQLKNTGNIVYNNIQGQGELLQSIEKNIDKAENDLKKSTSVNTAFTPKNVPNTEQNDQETQTDDDINDADIDENNNANDKNNCHMYKKNNCHMYKKNNCKKYFLNSHYNNYLCKKQKKYNKNDMGNKQKDNKKFKLNEAMKNHFYNIFVKETVMLKKLYKVLFELF
modifications: bait human Fc-tagged dimer
B7: 75 (protein)
chain: NVVAPKSAEAVHTLTAKLDTENKAHQKYIDIINGVFSENMENFVFSITTSNGFTCSINKLDVIFDNKVTGMQKVFSDENVQYIKEASLEFKNNLLEYMKGVMPSENDFSNVRKEFQKVCVKYFSELRRKFFQIYRDPNNKNQNEDNVDNHMNIEEISQEFFSGFNPFGTMKIRKEQNPDLSQKDSLILNENNNDALTSADQKNNNMVPMENRAFSYSQQSSHVVSFDGHDEHVEQQEQHSGDNTQEDKDQLMDLPFNKDKVFSTFLKNVALLIEGNCAEAQQQAQEQTQEQTEEQEEEQNEKEIESDKQVQKDGEQKENDVQKKQKANAFTIQFSSSLSRKHISTTCNAASGNVFLRKGNKPFEHFNSPNFENMMKGVFGIIQNPFENGQPTFPFFKNINSISGIGNVDIPKNFMNDFLNNGNDQNTPISS
modifications: bait human Fc-tagged dimer
B8: 83 (protein)
chain: NKNLKCNFYYNNNNLATYVIKHNRFLSEYQSNFLGGGYSAALKLVNSKKSGTNVNTKYNSENTNTNNNIPESSSTYTNTRLAANNAATTSTTKVTDNNKANIKLTGNNAATINTNSAENTAATKKVTENVITNQILTGNNNAATNTATTEHNNNINTNTNSAENTAATKKVTENVITNQILTGNNNAATNTATTEHNNNINTNTNSADNSNTNTNLADNTATTKKLTDNINTAQNLATSTNTATVSTDNNNINTKPIDNNNADIKSTDNYNTGTKETDNKNTDIKATDNNNIATTTDNTNTNVISTDNSKTNVISTDNSKTNTISTDNDNADTILTDNDNNADIILTDNNNADTISTDNDNADTKATDNNNNANTKATDNNNAKIISPDNNNAKTTSTDNNNNANTKATDNNNAKTISNDNNNAKTISTDNNNAKTISNDNNNANTISTDNNNNNANQYVFANNYNEATSDDELNKDSCDYSEEKENIKSMINAYLDKLDLETVRKIHSDISTCIEKKNNPRNQITHLNNLKNMYNIIKFIVVIYIAFNWAEVIYKYVGKLILAFALYMLIN
modifications: bait human Fc-tagged dimer
B9: 30 (protein)
chain: QDNKNKVEETHEEQGEMTQEEKDEIYSEFVDYDLNKDGLIDAEEIVVTLKNMKKADFINFFNKVDLDSSGTISIDEYMLFINSN
modifications: bait human Fc-tagged dimer
B10: 87 (protein)
chain: LKKGNGDFIKKNGVFFQIDRDMNEPPYSVINVFYTESLLDDNLLNQLEKERKMGKYKTQNYFRKSLDNNKYFMEYSRKQKEQLEFLLE
modifications: bait human Fc-tagged dimer

molecular target: FGFR4 ectodomain (Homo sapiens, UniProt P22455); experiment: AVEXIS normalised luminescence

In order of falling binding score:
1. B10  1.61
2. B9  1.55
3. B8  1.24
4. B6  1.23
5. B5  1.17
6. B3  1.05
7. B4  1.05
8. B7  1.05
9. B1  1.02
10. B2  1.02
